The test system of the data set is T1, hADAR2-R2D (Fig. 2C, Fig. S4, Table S4) E488Q (human), P78563-2.
T1 sequence: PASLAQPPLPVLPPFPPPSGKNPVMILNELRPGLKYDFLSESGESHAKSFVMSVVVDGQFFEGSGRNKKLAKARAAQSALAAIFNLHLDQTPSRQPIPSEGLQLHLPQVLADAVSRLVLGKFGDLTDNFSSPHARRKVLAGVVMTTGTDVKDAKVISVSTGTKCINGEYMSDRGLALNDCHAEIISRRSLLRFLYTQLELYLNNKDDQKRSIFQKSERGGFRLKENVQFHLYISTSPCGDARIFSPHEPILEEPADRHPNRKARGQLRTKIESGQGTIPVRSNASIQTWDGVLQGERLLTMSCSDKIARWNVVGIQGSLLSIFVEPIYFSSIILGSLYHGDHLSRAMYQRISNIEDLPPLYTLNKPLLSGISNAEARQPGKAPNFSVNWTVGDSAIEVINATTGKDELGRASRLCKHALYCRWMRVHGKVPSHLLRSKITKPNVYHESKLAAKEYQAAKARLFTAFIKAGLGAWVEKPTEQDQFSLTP
Briefly: EMSA. The settings on record: EMSA: 20 mM Tris-HCl pH 7.0, 3.5% glycerol, 0.5% DTT, 60 mM KCl, 20 mM NaCl, 0.1 mM BME, 1.5 mM EDTA, 0.003% NP-40, 160 U/ml RNasin, 100 ug/ml BSA, 1 ug/ml ….

The mark [1] stands for this setting: N = 8-azanebularine at top position 13.

Where the note is “N = 8-azanebularine at top position 18”, “GCAUAGCUCGCGAUGCUNGAGGGCUCUG / CAGAGCCCCCCAGCAUCGCGAGCUAUGC [hGLI1-28-5' 8AN (5' extended)]” returned a dissociation constant Kd of 1.31 nM. In turn, “GCUCGCGAUGCUNGAGGGCUCUG / CAGAGCCCCCCAGCAUCGCGAGC [hGLI1-23 8AN]” returned a Kd under setting [1] of 2.67 nM. “GCUCGCGAUGCUNGAGGGCUCUGAUAGC / GCUAUCAGAGCCCCCCAGCAUCGCGAGC [hGLI1-28-3' 8AN (3' extended)]”: the Kd under setting [1] is 1.79 nM.
